According to the supplement of paper PMC9170038:

Test system: MS2 coat protein
Assay: apparent KD of MS2 coat protein; designed switch direction (-1 OFF switch, 1 ON switch): -1; higher = weaker reporter binding
Outline: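 Transcription of designed RNA switches on Illumina chips was done by stalled E. coli RNA polymerase. SNAP-549-labelled MS2 coat protein was then titrated in doubling steps from 0.7 or 1.5 nM to 3 µM, with steps of 0.8–1.5 h at the lowest and 10–20 min at the highest concentration. The per-design median over clusters of curve-fitted normalised fluorescence is reported as apparent KD.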

[1] = Eterna round: R95, input ligand: microRNA oligo, concentration not stated
[2] = input ligand: microRNA oligo, concentration not stated

| Sequence | apparent KD of MS2 coat protein [1] [nM] | apparent KD of MS2 coat protein (input ligand: FMN 200 uM) [nM] | apparent KD of MS2 coat protein (input ligand: none) [nM] | further results |
| --- | --- | --- | --- | --- |
| AAGUACCGUCACGAUAGUGAUGGUACAACAAGUAAAUGUACAUGAGGAUCACCCAUGUCCUCUUUUGCUCGUCUUAU [Sensor 3 - 91] (puzzle: Sensor v3, turn-off variant 2) | 33 |  |  | apparent KD of MS2 coat protein (Eterna round: R95, input ligand: FMN 200 uM): 144 nM; apparent KD of MS2 coat protein (Eterna round: R95, input ligand: none): 166 nM |
| CUCUUAUCUUAGGAUAUUUUACCGCAAGUGGUGGGAGAAGGGAGCACAUGAGGAUCACCCAUGUUAGCUGGGCU [Eternabot (L2) Solution 19] (Eterna round: R97, puzzle: Exclusion 6) |  | 22.1 | 20.5 |  |
| GUAGAGUAAGGAUAUGUAGAAUAGGAUAGAAUGGUUAGAAUGCAGAAGGUACAUGAGGAUCACCCAUGUAAUGU [Excluse me!!!! 5 - Jieux - Exclusion 4] (puzzle: Exclusion 4) | 21.2 |  |  |  |
| GGCAUAAACGAGGAUAUCGAUACGGAAACGUAUCGAGAAGGUGUAACAUGAGGAUCACCCAUGUUCCUCAAGCC [Mat - Exclusion 6 - Eli Mod - D60] (puzzle: Exclusion 6) | 29.1 |  |  |  |
| AAAAGGCUAGGAUAUACCAGUGGGUGUAAGAACUCAAAGUUACAUGAGGAUCACCCAUGUAGAAGGAGUAAAAU [Diriti] (puzzle: Exclusion 2) | 16.2 |  |  |  |
| CUUUAGUGAGGAUAUCAGUAGUAAUACAAUAGUAUUACUGCUGAGAAGGCACAUGAGGAUCACCCAUGUUCCUC [Mat - Exclusion 4 - Mod of Omei - D83] (puzzle: Exclusion 4) | 33.1 |  |  |  |
| UAUUUAAGAGGAUAUACAUGAGGAUCACCCAUGUAAAAUAAAAUAGAUAAUUUUUUAUGUAGAAGGCUUGGGUA [-12.7, -11.42 kcal, A 39%] (Eterna round: R97, puzzle: Exclusion 3) |  | 38.5 | 40 |  |
| UGAGAGUCAGGAUAUCGAAGGUAGUGGAGAGGAGUGUGGUACGAGAAGGGACAUGAGGAUCACCCAUGUAGGUG [JR_Exclusion4)Sub009] (puzzle: Exclusion 4) | 420 |  |  |  |
| UAUAACCGAGGAUAUACAUGAGGAUCACCCAUGUAAUGUAGUAUAAUAUAUGUAAAAUGUAGAAGGUGGGAUGU (Eterna round: R97, puzzle: Exclusion 3) |  | 44.3 | 54.9 |  |
| UGUUAUAGAGGAUAUGCGUGAAAAUAGAUUCAUGGAAAUUUACAUGAGGAUCACCCAUGUAGAAGGCUGUGAUU [LRO-Excl2-15-mod 090 by JR] (Eterna round: R97, puzzle: Exclusion 2) |  | 14.8 | 14.7 |  |
| UUAAUUAGCAGGCAAGAUCAUUACAUGAGGAUCACCCAUGUCGAGGAUAUCAGCUCGUGUAGAGCUGAGAAGGCGACAGCCUGC [ExNG3/13-A3] (Eterna round: R96, puzzle: Exclusion NG 3) |  | 666 | 334 | apparent KD of MS2 coat protein [2]: 207 nM |
| CAGUACUGAGGAUAUACAUGAGGAUCACCCAUGUGAUUGAGUGCACGCGUACGUGUACGUAGAAGGCAGUACUG [JL 3.27 m11] (Eterna round: R97, puzzle: Exclusion 3) |  | 194 | 18.1 |  |
| AUAGUAUUGCAAGGAUAUCGAUUUAGUUUGUUUCGAGAAGGUGCUUUAGUUUAUACCUCUUGUUUACAUGAGGAUCACCCAUGU [JR_ExcNG1_Sub049] (Eterna round: R96, puzzle: Exclusion NG 1) |  | 18.5 | 27.5 | apparent KD of MS2 coat protein [2]: 19.2 nM |
| UUAAAUCAUGUAGGAUAUGCGUGGCGAAGCUAUGCAGAAGGACAUGAGGAUCACCCAUGUGCUUCCGUCUGAGAACAGACGGUA [Mat - Exclusion NG 1 - Mod of JL - D12] (Eterna round: R96, puzzle: Exclusion NG 1) |  | 91.8 | 93.1 | apparent KD of MS2 coat protein [2]: 63.9 nM |
| UUUAGUAUCUAGGAUAUCUAGUACAUAGUAUCUAGAGAAGGAGAUACAUGAGGAUCACCCAUGUUCUGUGUUCU [Exclusion 6 - 1:a] (puzzle: Exclusion 6) | 22.4 |  |  |  |
